Assay results taken from FireProtDB (doi:10.1126/science.aai7825).

Conditions: Escherichia coli (strain K12); pH 7.5; Thermal; Intensity; HEPES 20mM; transition: 2; whole UniProt chain shown

Row | Protein | Tm
1 | Zinc chaperone YeiR wild type, P33030 (protein) MTRTNLITGFLGSGKTTSILHLLAHKDPNEKWAVLVNEFGEVGIDGALLADSGALLKEIPGGCMCCVNGLPMQVGLNTLLRQGKPDRLLIEPTGLGHPKQILDLLTAPVYEPWIDLRATLCILDPRLLLDEKSASNENFRDQLAAADIIVANKSDRTTPESEQALQRWWQQNGGDRQLIHSEHGKVDGHLLDLPRRNLAELPASAAHSHQHVVKKGLAALSLPEHQRWRRSLNSGQGYQACGWIFDADTVFDTIGILEWARLAPVERVKGVLRIPEGLVRINRQGDDLHIETQNVAPPDSRIELISSSEADWNALQSALLKLRLATTA | 46.2 °C
2 | Acyl-CoA thioester hydrolase YciA wild type, P0A8Z0 (protein) MSTTHNVPQGDLVLRTLAMPADTNANGDIFGGWLMSQMDIGGAILAKEIAHGRVVTVRVEGMTFLRPVAVGDVVCCYARCVQKGTTSVSINIEVWVKKVASEPIGQRYKATEALFKYVAVDPEGKPRALPVE | 46.3 °C
3 | Transcriptional repressor MprA wild type, P0ACR9 (protein) MDSSFTPIEQMLKFRASRHEDFPYQEILLTRLCMHMQSKLLENRNKMLKAQGINETLFMALITLESQENHSIQPSELSCALGSSRTNATRIADELEKRGWIERRESDNDRRCLHLQLTEKGHEFLREVLPPQHNCLHQLWSALSTTEKDQLEQITRKLLSRLDQMEQDGVVLEAMS | 45.9 °C
4 | Enoyl-[acyl-carrier-protein] reductase [NADH] FabI wild type, P0AEK4 (protein) MGFLSGKRILVTGVASKLSIAYGIAQAMHREGAELAFTYQNDKLKGRVEEFAAQLGSDIVLQCDVAEDASIDTMFAELGKVWPKFDGFVHSIGFAPGDQLDGDYVNAVTREGFKIAHDISSYSFVAMAKACRSMLNPGSALLTLSYLGAERAIPNYNVMGLAKASLEANVRYMANAMGPEGVRVNAISAGPIRTLAASGIKDFRKMLAHCEAVTPIRRTVTIEDVGNSAAFLCSDLSAGISGEVVHVDGGFSIAAMNELELK | 45.3 °C
5 | Acetylornithine deacetylase wild type, P23908 (protein) MKNKLPPFIEIYRALIATPSISATEEALDQSNADLITLLADWFKDLGFNVEVQPVPGTRNKFNMLASIGQGAGGLLLAGHTDTVPFDDGRWTRDPFTLTEHDGKLYGLGTADMKGFFAFILDALRDVDVTKLKKPLYILATADEETSMAGARYFAETTALRPDCAIIGEPTSLQPVRAHKGHISNAIRIQGQSGHSSDPARGVNAIELMHDAIGHILQLRDNLKERYHYEAFTVPYPTLNLGHIHGGDASNRICACCELHMDIRPLPGMTLNELNGLLNDALAPVSERWPGRLTVDELHPPIPGYECPPNHQLVEVVEKLLGAKTEVVNYCTEAPFIQTLCPTLVLGPGSINQAHQPDEYLETRFIKPTRELITQVIHHFCWH | 45.9 °C
6 | Uncharacterized protein YjaG wild type, P32680 (protein) MLQNPIHLRLERLESWQHVTFMACLCERMYPNYAMFCQQTGFGDGQIYRRILDLIWETLTVKDAKVNFDSQLEKFEEAIPSADDFDLYGVYPAIDACVALSELVHSRLSGETLEHAVEVSKTSITTVAMLEMTQAGREMSDEELKENPAVEQEWDIQWEIFRLLAECEERDIELIKGLRADLREAGESNIGIIFQQ | 46.1 °C
